Measurements as given in patent publication US20140087995A1 (published 2014).
Numbered stars: 1 amine (or outer) side, 2 acyl side, 3 side chain; on linkers, the order of the positions; unused ones are H or OH. Bridge positions count the residues as written; N and C are the ends. Side chains are listed from the residue outwards. Ends that are not written are not given here. * marks the point of attachment. C20 diacid = O=C(O)CCCCCCCCCCCCCCCCCCC(=O)*; C16 diacid = O=C(O)CCCCCCCCCCCCCCC(=O)*; γGlu = O=C(O)[C@H](CCC(=O)[*:2])N[*:1]; AEEA = NCCOCCOCC(=O)O

T1: human calcitonin receptor (human, UniProt P30988 25-474)
T1 construct: whole, on cells; also called hCTR; hCT
T1 sequence (looked up): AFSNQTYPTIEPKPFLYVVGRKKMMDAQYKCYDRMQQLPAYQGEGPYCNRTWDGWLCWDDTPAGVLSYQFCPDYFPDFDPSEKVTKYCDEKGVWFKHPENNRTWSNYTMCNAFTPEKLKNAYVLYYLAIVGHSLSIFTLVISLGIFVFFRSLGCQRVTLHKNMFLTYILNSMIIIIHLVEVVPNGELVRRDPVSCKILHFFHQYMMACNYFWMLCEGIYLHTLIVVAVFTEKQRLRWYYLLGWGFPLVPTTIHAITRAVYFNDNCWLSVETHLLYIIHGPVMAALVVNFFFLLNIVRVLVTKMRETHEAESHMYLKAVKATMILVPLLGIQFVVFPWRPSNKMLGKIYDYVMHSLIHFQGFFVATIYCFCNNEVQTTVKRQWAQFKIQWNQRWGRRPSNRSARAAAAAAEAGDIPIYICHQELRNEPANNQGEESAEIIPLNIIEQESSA

B1: N^-1-[(4S)-4-carboxy-4-(19-carboxynonadecanoylamino)butanoyl]-Gly[Arg1,His14,Arg17,Pro21,Pro27,His34]-h-amylin (peptide)
peptide: {C20 diacid-γGlu}-GRCNTATCATQRLAHFLRHSSPNFGAIPSSTNVGHNTY-NH2
modifications: disulfide 3-8
SMILES: CC[C@H](C)[C@H](NC(=O)[C@H](C)NC(=O)CNC(=O)[C@H](Cc1ccccc1)NC(=O)[C@H](CC(N)=O)NC(=O)[C@@H]1CCCN1C(=O)[C@H](CO)NC(=O)[C@H](CO)NC(=O)[C@H](Cc1c[nH]cn1)NC(=O)[C@H](CCCNC(=N)N)NC(=O)[C@H](CC(C)C)NC(=O)[C@H](Cc1ccccc1)NC(=O)[C@H](Cc1c[nH]cn1)NC(=O)[C@H](C)NC(=O)[C@H](CC(C)C)NC(=O)[C@H](CCCNC(=N)N)NC(=O)[C@H](CCC(N)=O)NC(=O)[C@@H](NC(=O)[C@H](C)NC(=O)[C@@H]1CSSC[C@H](NC(=O)[C@H](CCCNC(=N)N)NC(=O)CNC(=O)CC[C@H](NC(=O)CCCCCCCCCCCCCCCCCCC(=O)O)C(=O)O)C(=O)N[C@@H](CC(N)=O)C(=O)N[C@@H]([C@@H](C)O)C(=O)N[C@@H](C)C(=O)N[C@@H]([C@@H](C)O)C(=O)N1)[C@@H](C)O)C(=O)N1CCC[C@H]1C(=O)N[C@@H](CO)C(=O)N[C@@H](CO)C(=O)N[C@H](C(=O)N[C@@H](CC(N)=O)C(=O)N[C@H](C(=O)NCC(=O)N[C@@H](Cc1c[nH]cn1)C(=O)N[C@@H](CC(N)=O)C(=O)N[C@H](C(=O)N[C@@H](Cc1ccc(O)cc1)C(N)=O)[C@@H](C)O)C(C)C)[C@@H](C)O
notes: also called compound 100
B2: N^-1-[(4S)-4-carboxy-4-(19-carboxynonadecanoylamino)butanoyl]-Gly[Arg1,Ala14,Arg17,Pro21,Pro27,His34]-h-amylin (peptide)
peptide: {C20 diacid-γGlu}-GRCNTATCATQRLAAFLRHSSPNFGAIPSSTNVGHNTY-NH2
modifications: disulfide 3-8
SMILES: CC[C@H](C)[C@H](NC(=O)[C@H](C)NC(=O)CNC(=O)[C@H](Cc1ccccc1)NC(=O)[C@H](CC(N)=O)NC(=O)[C@@H]1CCCN1C(=O)[C@H](CO)NC(=O)[C@H](CO)NC(=O)[C@H](Cc1c[nH]cn1)NC(=O)[C@H](CCCNC(=N)N)NC(=O)[C@H](CC(C)C)NC(=O)[C@H](Cc1ccccc1)NC(=O)[C@H](C)NC(=O)[C@H](C)NC(=O)[C@H](CC(C)C)NC(=O)[C@H](CCCNC(=N)N)NC(=O)[C@H](CCC(N)=O)NC(=O)[C@@H](NC(=O)[C@H](C)NC(=O)[C@@H]1CSSC[C@H](NC(=O)[C@H](CCCNC(=N)N)NC(=O)CNC(=O)CC[C@H](NC(=O)CCCCCCCCCCCCCCCCCCC(=O)O)C(=O)O)C(=O)N[C@@H](CC(N)=O)C(=O)N[C@@H]([C@@H](C)O)C(=O)N[C@@H](C)C(=O)N[C@@H]([C@@H](C)O)C(=O)N1)[C@@H](C)O)C(=O)N1CCC[C@H]1C(=O)N[C@@H](CO)C(=O)N[C@@H](CO)C(=O)N[C@H](C(=O)N[C@@H](CC(N)=O)C(=O)N[C@H](C(=O)NCC(=O)N[C@@H](Cc1c[nH]cn1)C(=O)N[C@@H](CC(N)=O)C(=O)N[C@H](C(=O)N[C@@H](Cc1ccc(O)cc1)C(N)=O)[C@@H](C)O)C(C)C)[C@@H](C)O
B3: N^-1-[(4S)-4-carboxy-4-(19-carboxynonadecanoylamino)butanoyl]-Gly[Arg1,His14,Arg17,Pro21,Pro27,Pro34]-h-amylin (peptide)
peptide: {C20 diacid-γGlu}-GRCNTATCATQRLAHFLRHSSPNFGAIPSSTNVGPNTY-NH2
modifications: disulfide 3-8
SMILES: CC[C@H](C)[C@H](NC(=O)[C@H](C)NC(=O)CNC(=O)[C@H](Cc1ccccc1)NC(=O)[C@H](CC(N)=O)NC(=O)[C@@H]1CCCN1C(=O)[C@H](CO)NC(=O)[C@H](CO)NC(=O)[C@H](Cc1c[nH]cn1)NC(=O)[C@H](CCCNC(=N)N)NC(=O)[C@H](CC(C)C)NC(=O)[C@H](Cc1ccccc1)NC(=O)[C@H](Cc1c[nH]cn1)NC(=O)[C@H](C)NC(=O)[C@H](CC(C)C)NC(=O)[C@H](CCCNC(=N)N)NC(=O)[C@H](CCC(N)=O)NC(=O)[C@@H](NC(=O)[C@H](C)NC(=O)[C@@H]1CSSC[C@H](NC(=O)[C@H](CCCNC(=N)N)NC(=O)CNC(=O)CC[C@H](NC(=O)CCCCCCCCCCCCCCCCCCC(=O)O)C(=O)O)C(=O)N[C@@H](CC(N)=O)C(=O)N[C@@H]([C@@H](C)O)C(=O)N[C@@H](C)C(=O)N[C@@H]([C@@H](C)O)C(=O)N1)[C@@H](C)O)C(=O)N1CCC[C@H]1C(=O)N[C@@H](CO)C(=O)N[C@@H](CO)C(=O)N[C@H](C(=O)N[C@@H](CC(N)=O)C(=O)N[C@H](C(=O)NCC(=O)N1CCC[C@H]1C(=O)N[C@@H](CC(N)=O)C(=O)N[C@H](C(=O)N[C@@H](Cc1ccc(O)cc1)C(N)=O)[C@@H](C)O)C(C)C)[C@@H](C)O
B4: N{-1}-[(4S)-4-carboxy-4-(19-carboxynonadecanoylamino)butanoyl]-Gly[Arg1,His14,Arg17,Pro21,Pro27]-h-amylin (peptide)
peptide: {C20 diacid-γGlu}-GRCNTATCATQRLAHFLRHSSPNFGAIPSSTNVGSNTY-NH2
modifications: disulfide 3-8
SMILES: CC[C@H](C)[C@H](NC(=O)[C@H](C)NC(=O)CNC(=O)[C@H](Cc1ccccc1)NC(=O)[C@H](CC(N)=O)NC(=O)[C@@H]1CCCN1C(=O)[C@H](CO)NC(=O)[C@H](CO)NC(=O)[C@H](Cc1c[nH]cn1)NC(=O)[C@H](CCCNC(=N)N)NC(=O)[C@H](CC(C)C)NC(=O)[C@H](Cc1ccccc1)NC(=O)[C@H](Cc1c[nH]cn1)NC(=O)[C@H](C)NC(=O)[C@H](CC(C)C)NC(=O)[C@H](CCCNC(=N)N)NC(=O)[C@H](CCC(N)=O)NC(=O)[C@@H](NC(=O)[C@H](C)NC(=O)[C@@H]1CSSC[C@H](NC(=O)[C@H](CCCNC(=N)N)NC(=O)CNC(=O)CC[C@H](NC(=O)CCCCCCCCCCCCCCCCCCC(=O)O)C(=O)O)C(=O)N[C@@H](CC(N)=O)C(=O)N[C@@H]([C@@H](C)O)C(=O)N[C@@H](C)C(=O)N[C@@H]([C@@H](C)O)C(=O)N1)[C@@H](C)O)C(=O)N1CCC[C@H]1C(=O)N[C@@H](CO)C(=O)N[C@@H](CO)C(=O)N[C@H](C(=O)N[C@@H](CC(N)=O)C(=O)N[C@H](C(=O)NCC(=O)N[C@@H](CO)C(=O)N[C@@H](CC(N)=O)C(=O)N[C@H](C(=O)N[C@@H](Cc1ccc(O)cc1)C(N)=O)[C@@H](C)O)C(C)C)[C@@H](C)O
notes: also called compound 99
B5: N^ε1-[(4S)-4-carboxy-4-(15-carboxypentadecanoylamino)butanoyl]-[Arg17,Pro21,Pro27,His34]-h-amylin (peptide)
peptide: K([γGlu-C16 diacid])CNTATCATQRLANFLRHSSPNFGAIPSSTNVGHNTY-NH2
modifications: disulfide 2-7; N-terminus assumed
SMILES: CC[C@H](C)[C@H](NC(=O)[C@H](C)NC(=O)CNC(=O)[C@H](Cc1ccccc1)NC(=O)[C@H](CC(N)=O)NC(=O)[C@@H]1CCCN1C(=O)[C@H](CO)NC(=O)[C@H](CO)NC(=O)[C@H](Cc1c[nH]cn1)NC(=O)[C@H](CCCNC(=N)N)NC(=O)[C@H](CC(C)C)NC(=O)[C@H](Cc1ccccc1)NC(=O)[C@H](CC(N)=O)NC(=O)[C@H](C)NC(=O)[C@H](CC(C)C)NC(=O)[C@H](CCCNC(=N)N)NC(=O)[C@H](CCC(N)=O)NC(=O)[C@@H](NC(=O)[C@H](C)NC(=O)[C@@H]1CSSC[C@H](NC(=O)[C@@H](N)CCCCNC(=O)CC[C@H](NC(=O)CCCCCCCCCCCCCCC(=O)O)C(=O)O)C(=O)N[C@@H](CC(N)=O)C(=O)N[C@@H]([C@@H](C)O)C(=O)N[C@@H](C)C(=O)N[C@@H]([C@@H](C)O)C(=O)N1)[C@@H](C)O)C(=O)N1CCC[C@H]1C(=O)N[C@@H](CO)C(=O)N[C@@H](CO)C(=O)N[C@H](C(=O)N[C@@H](CC(N)=O)C(=O)N[C@H](C(=O)NCC(=O)N[C@@H](Cc1c[nH]cn1)C(=O)N[C@@H](CC(N)=O)C(=O)N[C@H](C(=O)N[C@@H](Cc1ccc(O)cc1)C(N)=O)[C@@H](C)O)C(C)C)[C@@H](C)O
B6: N^ε1-[2-[2-[2-[[2-[2-[2-[[(4S)-4-carboxy-4-(19-carboxynonadecanoylamino)butanoyl]amino]ethoxy]ethoxy]acetyl]amino]ethoxy]ethoxy]acetyl]-[Arg17,Pro21,Pro27,His34 … (peptide)
peptide: K([AEEA-AEEA-γGlu-C20 diacid])CNTATCATQRLANFLRHSSPNFGAIPSSTNVGHNTY-NH2
modifications: disulfide 2-7; N-terminus assumed
SMILES: CC[C@H](C)[C@H](NC(=O)[C@H](C)NC(=O)CNC(=O)[C@H](Cc1ccccc1)NC(=O)[C@H](CC(N)=O)NC(=O)[C@@H]1CCCN1C(=O)[C@H](CO)NC(=O)[C@H](CO)NC(=O)[C@H](Cc1c[nH]cn1)NC(=O)[C@H](CCCNC(=N)N)NC(=O)[C@H](CC(C)C)NC(=O)[C@H](Cc1ccccc1)NC(=O)[C@H](CC(N)=O)NC(=O)[C@H](C)NC(=O)[C@H](CC(C)C)NC(=O)[C@H](CCCNC(=N)N)NC(=O)[C@H](CCC(N)=O)NC(=O)[C@@H](NC(=O)[C@H](C)NC(=O)[C@@H]1CSSC[C@H](NC(=O)[C@@H](N)CCCCNC(=O)COCCOCCNC(=O)COCCOCCNC(=O)CC[C@H](NC(=O)CCCCCCCCCCCCCCCCCCC(=O)O)C(=O)O)C(=O)N[C@@H](CC(N)=O)C(=O)N[C@@H]([C@@H](C)O)C(=O)N[C@@H](C)C(=O)N[C@@H]([C@@H](C)O)C(=O)N1)[C@@H](C)O)C(=O)N1CCC[C@H]1C(=O)N[C@@H](CO)C(=O)N[C@@H](CO)C(=O)N[C@H](C(=O)N[C@@H](CC(N)=O)C(=O)N[C@H](C(=O)NCC(=O)N[C@@H](Cc1c[nH]cn1)C(=O)N[C@@H](CC(N)=O)C(=O)N[C@H](C(=O)N[C@@H](Cc1ccc(O)cc1)C(N)=O)[C@@H](C)O)C(C)C)[C@@H](C)O
notes: also called compound 97

The binders below were run against T1, human calcitonin receptor (assay: SPA radioligand competition (125I-calcitonin), membranes of BHK cells with human calcitonin receptor).
In short: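 BHK hCTR membranes 35 ng/μL + SPA beads 0.05 mg/well; buffer 50 mM Hepes pH 7.4, 1 mM CaCl2, 5 mM MgCl₂, 0.1% OA, 0.02% Tween20. 120 min, 25° C., shaking. Scintillation count; IC50 by one-site binding competition.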

IC50 [nM] | Binder
66.3 | B1
29.2 | B2
7.87 | B3
35 | B4
3 | {C20 diacid-γGlu}-GRCNTATCATQRLAAFLRHSSPNFGAIPSSTNVGPNTY-NH2 (disulfide 3-8)
10.8 | B5
58.9 | B6

These binders were tested against T1, human calcitonin receptor (assay: ratio of IC50 at human calcitonin receptor to IC50 at human amylin receptor (SPA competition assays)).
In short: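 Competition binding by SPA uses membrane preparations (35 ng/μL final) in pH 7.4 Hepes buffer with 1 mM CaCl2 and 5 mM MgCl₂. Incubation lasts 120 min at 25° C, and IC₅₀ comes from one-site fitting.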

Ratio hCT/hAmylin binding | Binder
65.3 | B1
68.6 | B2
36.2 | B3
100 | B4
26.5 | {C20 diacid-γGlu}-GRCNTATCATQRLAAFLRHSSPNFGAIPSSTNVGPNTY-NH2 (disulfide 3-8)
18.5 | B5
104 | B6
